What was measured:
human factor D [1] = biological target: T1, human factor D (human, UniProt P00746 26-253); assay: cell-based or functional assay
human factor D [2] = biological target: T1, human factor D; assay: cell-based or functional assay; remark: listed apart in the source
human factor D [3] = biological target: T1, human factor D; assay: SPR Biacore T200, Fab captured by anti-huFab, human fD injected, 25 C
Experimental: Antibody Fab fragments were immobilized on a Series S CM5 sensor chip using the anti-huFab capture kit (GE healthcare Cat. #28-9583-25) following a protocol described by the manufacturer. Kinetics of binding were calculated from sensorgrams recorded for injection of 60 μL aliquots of solutions of human factor D varied in concentration from 0.39 nM to 25 nM in 2-fold increments. The flow rate was 30 μL/minute, the running buffer was HBS-P+, the temperature of analysis was 25° C., real-time reference cell subtraction was employed, and dissociation following factor D injection was followed for 10 minutes. After subtraction of the sensorgram observed for injection of running buffer, data were analyzed according to a 1:1 model using BiaEval software v4.1 (GE Healthcare) to extract the kinetics and affinity constants.

human factor D [4] = biological target: T1, human factor D; assay: cell-based or functional assay; remark: listed apart in the source

T1 sequence (P00746 26-253 limits assumed): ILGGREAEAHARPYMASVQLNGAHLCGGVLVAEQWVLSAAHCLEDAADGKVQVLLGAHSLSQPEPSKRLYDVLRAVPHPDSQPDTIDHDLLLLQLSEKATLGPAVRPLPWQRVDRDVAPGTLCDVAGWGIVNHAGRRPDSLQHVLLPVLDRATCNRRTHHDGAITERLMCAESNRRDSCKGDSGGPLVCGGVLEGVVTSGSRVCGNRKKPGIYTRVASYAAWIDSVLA

Average IC50 fB Activation (pM), TR-FRET, 50 pM fD (human factor D [2]) [pM]	Kd (human factor D [3]) [pM]	Binder	further results
11		AFD.v8 tetramer (AFD.v8.C conjugated to Sunbright PTE-400MA four-armed PEG) (other, C-terminal Cys linked through maleimide to one arm of a 40,000 MW four-armed PEG (Sunbright PTE-400MA)) light: DIQVTQSPSSLSASVGDRVTITCITSTSIESDMNWYQQKPGKVPKLLISGGNTLRPGVPSRFSGSGSGTDFTLTISSLQPEDVATYYCLQSDSLPYTFGQGTKVEIKRTVAAPSVFIFPPSDEQLKSGTASVVCLLNNFYPREAKVQWKVDNALQSGNSQESVTEQDSKDSTYSLSSTLTLSKADYEKHKVYACEVTHQGLSSPVTKSFNRGEC heavy: EVQLVQSGPELKKPGASVKVSCKASGYTFTNYGMNWVRQAPGQGLEWMGWINTYTGETTYAEDFKGRFVFSLDTSVSTAYLQISSLKAEDTAVYYCEREGGVNNWGQGTLVTVSSASTKGPSVFPLAPSSKSTSGGTAALGCLVKDYFPEPVTVSWNSGALTSGVHTFPAVLQSSGLYSLSSVVTVPSSSLGTQTYICNVNHKPSNTKVDKKVEPKSCDKTHTC	
14.8		AFD.v14 tetramer (AFD.v14.C conjugated to Sunbright PTE-400MA four-armed PEG) (other, C-terminal Cys linked through maleimide to one arm of a 40,000 MW four-armed PEG (Sunbright PTE-400MA)) light: DIQVTQSPSSLSASVGDRVTITCITSTSIESDMNWYQQKPGKVPKLLISGGNTLRPGVPSRFSGSGSGTDFTLTISSLQPEDVATYYCLQSDSLPYTFGQGTKVEIKRTVAAPSVFIFPPSDEQLKSGTASVVCLLNNFYPREAKVQWKVDNALQSGNSQESVTEQDSKDSTYSLSSTLTLSKADYEKHKVYACEVTHQGLSSPVTKSFNRGEC heavy: EVQLVQSGPELKKPGASVKVSCKASGYTFTNYGMNWVRQAPGQGLEWMGWINTYTGETTYAEDFKGRFVFSLDTSVSTAYLQISSLKAEDTAVYYCEREGGVSNWGQGTLVTVSSASTKGPSVFPLAPSSKSTSGGTAALGCLVKDYFPEPVTVSWNSGALTSGVHTFPAVLQSSGLYSLSSVVTVPSSSLGTQTYICNVNHKPSNTKVDKKVEPKSCDKTHTC	
	23	AFD.v12 (SIESD.N103D; VL-D28S:D30E:D31S VH-D62E VH-N103D) (Fab, V domains shown, Fab variant of aFD.WT) VH: EVQLVQSGPELKKPGASVKVSCKASGYTFTNYGMNWVRQAPGQGLEWMGWINTYTGETTYAEDFKGRFVFSLDTSVSTAYLQISSLKAEDTAVYYCEREGGVDNWGQGTLVTVSS VL: DIQVTQSPSSLSASVGDRVTITCITSTSIESDMNWYQQKPGKVPKLLISGGNTLRPGVPSRFSGSGSGTDFTLTISSLQPEDVATYYCLQSDSLPYTFGQGTKVEIKR	

Continued, binder first:

Binder	Average IC50 fB Activation (pM), TR-FRET, 50 pM fD (human factor D [2]) [pM]	Kd (human factor D [3]) [pM]	further results
AFD.v14.C+TP octamer (Cys-modified AFD.v14-8ARM (TP)-PEG-MAL conjugate) (other, C-terminal Cys linked through maleimide to one arm of a 40,000 MW eight-armed PEG with tripentaerythritol (TP) core (8ARM (TP)-PEG-MAL, JenKem)) light: DIQVTQSPSSLSASVGDRVTITCITSTSIESDMNWYQQKPGKVPKLLISGGNTLRPGVPSRFSGSGSGTDFTLTISSLQPEDVATYYCLQSDSLPYTFGQGTKVEIKRTVAAPSVFIFPPSDEQLKSGTASVVCLLNNFYPREAKVQWKVDNALQSGNSQESVTEQDSKDSTYSLSSTLTLSKADYEKHKVYACEVTHQGLSSPVTKSFNRGEC heavy: EVQLVQSGPELKKPGASVKVSCKASGYTFTNYGMNWVRQAPGQGLEWMGWINTYTGETTYAEDFKGRFVFSLDTSVSTAYLQISSLKAEDTAVYYCEREGGVSNWGQGTLVTVSSASTKGPSVFPLAPSSKSTSGGTAALGCLVKDYFPEPVTVSWNSGALTSGVHTFPAVLQSSGLYSLSSVVTVPSSSLGTQTYICNVNHKPSNTKVDKKVEPKSCDKTHTC			Average IC50 fB Activation (pM), TR-FRET, 125 pM fD; AFD.v14 TP octamer (CEX pool) (human factor D [1]): 77 pM; Average IC50 fB Activation (pM), TR-FRET, 125 pM fD; AFD.v14 TP octamer (S200 pool) (human factor D [1]): 104 pM
AFD.v1 (VL-D28S) (Fab, V domains shown, Fab variant of aFD.WT) VH: EVQLVQSGPELKKPGASVKVSCKASGYTFTNYGMNWVRQAPGQGLEWMGWINTYTGETTYADDFKGRFVFSLDTSVSTAYLQISSLKAEDTAVYYCEREGGVNNWGQGTLVTVSS VL: DIQVTQSPSSLSASVGDRVTITCITSTSIDDDMNWYQQKPGKVPKLLISGGNTLRPGVPSRFSGSGSGTDFTLTISSLQPEDVATYYCLQSDSLPYTFGQGTKVEIKR		≤ 10	
AFD.v14.C (Cys-modified AFD.v14 variant, Fab-C) (Fab, V domains shown) VH: EVQLVQSGPELKKPGASVKVSCKASGYTFTNYGMNWVRQAPGQGLEWMGWINTYTGETTYAEDFKGRFVFSLDTSVSTAYLQISSLKAEDTAVYYCEREGGVSNWGQGTLVTVSS VL: DIQVTQSPSSLSASVGDRVTITCITSTSIESDMNWYQQKPGKVPKLLISGGNTLRPGVPSRFSGSGSGTDFTLTISSLQPEDVATYYCLQSDSLPYTFGQGTKVEIKR			Average IC50 fB Activation (pM), TR-FRET, 125 pM fD (human factor D [1]): 72 pM
AFD.v8 (SIESD; VL-D28S:D30E:D31S VH-D62E) (Fab, V domains shown, Fab; also called SIESD (AFD.v8)) VH: EVQLVQSGPELKKPGASVKVSCKASGYTFTNYGMNWVRQAPGQGLEWMGWINTYTGETTYAEDFKGRFVFSLDTSVSTAYLQISSLKAEDTAVYYCEREGGVNNWGQGTLVTVSS VL: DIQVTQSPSSLSASVGDRVTITCITSTSIESDMNWYQQKPGKVPKLLISGGNTLRPGVPSRFSGSGSGTDFTLTISSLQPEDVATYYCLQSDSLPYTFGQGTKVEIKR	27.6	16.7	IC50 (nM) AP Hemolysis (rabbit erythrocytes, C1q-depleted human serum) (human factor D [4]): 4.2 nM
AFD.v7 (TM.D92E; VL-D30E:D31S VH-D62E VL-D92E) (Fab, V domains shown, Fab variant of aFD.WT; also called TM.D92E (AFD.v7)) VH: EVQLVQSGPELKKPGASVKVSCKASGYTFTNYGMNWVRQAPGQGLEWMGWINTYTGETTYAEDFKGRFVFSLDTSVSTAYLQISSLKAEDTAVYYCEREGGVNNWGQGTLVTVSS VL: DIQVTQSPSSLSASVGDRVTITCITSTDIESDMNWYQQKPGKVPKLLISGGNTLRPGVPSRFSGSGSGTDFTLTISSLQPEDVATYYCLQSESLPYTFGQGTKVEIKR		≤ 10	IC50 (nM) AP Hemolysis (rabbit erythrocytes, C1q-depleted human serum) (human factor D [4]): 3.8 nM

From US20170143843A1 (Genentech, published 2017)
